Values belong to the binder of their own block, whether it stands above or below them.
Columns and labels:
[1] = biological target: T1, mucin subtype 5AC (MUC5AC) (human (from transplanted human …, UniProt P98088 28-5654, limits assumed)); experiment: in vitro autoradiography; mean of small ROIs in MUC5AC positive vs negative tumor sections
T1 construct: Secretory mucin glycoprotein; target present in tumor tissue sections, not as purified protein

[2] = biological target: T1, mucin subtype 5AC (MUC5AC); experiment: in vitro autoradiography; whole-section ROI of MUC5AC positive vs negative tumor sections

binding ratio to the MUC5AC positive tumor and the negative tumor [1]: 6.5 fold
B1: ^225Ac-labeled anti-MUC5AC humanized antibody prepared using ^225Ac-labeled DOTAGA-DBCO (monovalent antibody; H01L03) (antibody, human IgG1, kappa, V domains shown)
VH: EVQLLESGGGLVQPGGSLRLSCAASGFTFSNYGMSWVRQAPGKGLEWVSTISNSGRYTYFPDSVKGRFTISRDNSKNTLYLQMNSLRAEDTALYYCTRHLDYANYDAMDYWGQGTLVTVSS
VL: DIQMTQSPSSLSASVGDRVTITCRASKSVTTSDFSYMHWYQQKPGKSPKLLIYLASNLESGVPSRFSGSGSGTDFSLTISSLQPEDFATYYCQHSREFPWTFGGGTKVEIKR
modifications: Fc region site-specifically modified (Lys252, Eu numbering) by one molecule per antibody of antibody-modification peptide (SEQ ID NO: 10 with Xaa2 = lysine, disulfide between its two cysteines, N-terminal diglycolic acid-PEG8-ethyl azide); azide click-reacted with ^225Ac-chelated DOTAGA-DBCO
notes: also called RI-labeled anti-MUC5AC humanized antibody prepared using ^225Ac-labeled DOTAGA-DBCO; ^225Ac-labeled antibody

binding ratio to the MUC5AC positive tumor and the negative tumor [2]: 138 fold
B2: ^89Zr-labeled anti-MUC5AC humanized antibody prepared using ^89Zr-labeled DOTAGA-DBCO (monovalent antibody; H01L03) (antibody, human IgG1, kappa, V domains shown)
VH: B1 VH
VL: B1 VL
modifications: Fc region site-specifically modified (Lys252, Eu numbering) by one molecule per antibody of antibody-modification peptide (SEQ ID NO: 10 with Xaa2 = lysine, disulfide between its two cysteines, N-terminal diglycolic acid-PEG8-ethyl azide); azide click-reacted with ^89Zr-chelated DOTAGA-DBCO
notes: also called RI-labeled anti-MUC5AC humanized antibody prepared using ^89Zr-labeled DOTAGA-DBCO; ^89Zr complex-labeled antibody

binding ratio to the MUC5AC positive tumor and the negative tumor [2]: 151 fold
B3: ^89Zr-labeled anti-MUC5AC humanized antibody prepared using ^89Zr-labeled DOTA-Bn-DBCO (monovalent antibody; H01L03) (antibody, human IgG1, kappa, V domains shown)
VH: B1 VH
VL: B1 VL
modifications: Fc region site-specifically modified (Lys252, Eu numbering) by one molecule per antibody of antibody-modification peptide (SEQ ID NO: 10 with Xaa2 = lysine, disulfide between its two cysteines, N-terminal diglycolic acid-PEG8-ethyl azide); azide click-reacted with ^89Zr-chelated DOTA-Bn-DBCO (formula L1-4)
notes: also called RI-labeled anti-MUC5AC humanized antibody prepared using ^89Zr-labeled DOTA-Bn-DBCO

— US20210338852A1 (NIHON MEDI PHYSICS, published 2021)
